B1: KLHL12 (parent)
chain: REESLPNLLQYVRMPLLTPRYITD
B2: MIA2 (parent)
chain: DMVSNIELPTRIHEEVYFEPSSSK

Variants of: B1
Assay: protein stability index of a GFP-peptide fusion (GPS, HEK-293T) (PSI 1-6); higher = more stable
Conditions: c terminus: a fixed tail appended
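Note: lentivirally expressed fusions sorted by FACS into six bins by GFP to DsRed ratio, PSI derived from sequencing read proportions per bin multiplied by bin number.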

Protein stability index of substitutions, site by site:
R13: M 2.07
N7: H 2.44, C 2.35
L9: A 2.97, M 2.44, Q 3.77, H 3.29
E3: D 2.2, Q 2.72
P19: Y 1.4, I 2.12, V 2.22
I22: Y 2.34, Q 2.54, K 3.71, N 2.71
Y21: N 3.25
Q10: W 1.17
E2: G 3.19
R1: H 2.18, K 2.52
P15: E 2.54
S4: R 2.5, Q 2.51, W 1.9
L8: D 3.75, W 2.12
D24: Y 2.22, P 2.04, E 2.26
Y11: W 1.96, V 2.51
L16: M 2.46
L5: E 3.4
P6: R 2.59

Variants of: B2
Assay: as above
Conditions: c terminus: a fixed tail appended

Protein stability index of substitutions, site by site:
D1: A 3.62, C 2.86, E 3.16, F 2.87, G 3.65, H 4.67, I 2.36, K 3.93, L 3.11, M 2.73, N 4.15, P 4.09, Q 3.95, R 4.25, S 3.5, T 3.63, V 1.98, W 2.63, Y 3.42
M2: A 5.19, C 4.99, D 5.43, E 5.23, F 3.28, G 4.78, H 4.48, I 3.62, K 3.55, L 3.7, N 5.1, P 5.15, Q 5.01, R 4.18, S 5.02, T 5.12, V 3.64, W 2.8, Y 3.72
V3: A 3.79, C 3.97, D 3.89, E 4.65, F 3.73, G 4.23, H 3.56, I 4.26, K 4.02, L 3.53, M 4.09, N 3.86, P 4.1, Q 4.02, R 4.56, S 4.26, T 3.04, W 3.15, Y 3.87
S4: A 3.97, C 3.44, D 3.98, E 4.48, F 2.35, G 3.82, H 4.29, I 1.93, K 4.07, L 3.12, M 3.51, N 4.03, P 4.34, Q 3.52, R 3.97, T 3.73, V 3.33, W 2.6, Y 4.01
N5: A 4.14, C 4.04, D 4.56, E 4.18, F 3.95, G 3.84, H 4.3, I 3.86, K 4.43, L 3.19, M 3.99, P 5.11, Q 4.33, R 3.92, S 4.46, T 4.47, V 3.5, W 4.38, Y 2.46
I6: A 4.51, C 4.91, D 4.86, E 5.27, F 4.08, G 4.52, H 4.34, K 4.68, L 4.16, M 4.32, N 4.77, P 4.4, Q 4.19, R 3.84, S 4.07, T 4.48, V 4.18, W 3.32, Y 4.03
E7: A 3.65, C 3.32, D 3.83, F 3.59, G 3.58, H 3.98, I 2.88, K 3.03, L 3.16, M 3.29, N 2.85, P 3.34, Q 2.9, R 3.33, S 3.02, T 2.78, V 3.53, W 2.64, Y 2.11
L8: A 4.46, C 4.02, D 4.54, E 5.22, F 4.47, G 4.74, H 4.56, I 4.04, K 3.83, M 3.46, N 4.44, P 4.4, Q 4.53, R 3.64, S 4.5, T 4, V 4.13, W 4.22, Y 3.52
P9: A 3.46, C 3.53, D 3.46, E 4.21, F 3.01, G 3.53, H 3.5, I 3.3, K 3.89, L 3.65, M 3.35, N 4.06, Q 4.08, R 3.6, S 3.31, T 3.69, V 2.94, W 2.98, Y 3.41
T10: A 4.23, C 1.67, D 4.74, E 4.01, F 3.86, G 3.83, H 4.47, I 3.94, K 3.4, L 4.11, M 3.81, N 3.61, P 4, Q 4.44, R 3.63, S 4.13, V 3.65, W 3.27, Y 3.83
R11: A 4.7, C 3.62, D 4.49, E 4.5, F 3.42, G 4.86, H 3.43, I 3.58, K 3.77, L 3.94, M 4.16, N 4.39, P 4.09, Q 4.42, S 4.07, T 4.27, V 4.14, W 3.52, Y 3.26
I12: A 4.18, C 3.22, D 4.79, E 4.33, F 3.57, G 4.39, H 3.42, K 3.64, L 3.89, M 3.6, N 3.69, P 3.86, Q 4.11, R 3.06, S 4.51, T 3.98, V 4.25, W 3.59, Y 3.87
H13: A 4, C 3.37, D 3.59, E 4.44, F 3.81, G 4.05, I 3.42, K 3.64, L 3.99, M 3.02, N 4.19, P 4.32, Q 3.84, R 3.8, S 3.33, T 3.02, V 3.62, W 3.15, Y 3.57
E14: A 3.51, C 1.91, D 3.59, F 2.46, G 3.28, H 3.28, K 3.36, L 2.04, M 2.58, N 3.82, P 3.16, Q 3.43, R 2.98, S 3.29, T 3.07, W 2.88, Y 1.86
E15: A 3.35, C 2.97, D 4.45, F 2.62, G 3.84, H 3.63, I 2.28, K 3.52, L 3.27, M 2.72, N 3.29, P 2.96, Q 3.44, R 2.96, S 3.54, T 3.9, V 2.6, W 2.75, Y 3.22
V16: A 4.26, C 4.33, D 4.77, E 5.02, F 3.87, G 4.16, H 3.55, I 3.87, K 3.89, L 4.09, M 3.46, N 4.47, P 4.12, Q 4.02, R 3.17, S 4.02
